Where “and” joins values, the source holds several entries; their conditions need not be identical. Identical values can stand only once.
T1: Salmonella enterica serovar Typhimurium FliR (Salmonella enterica serovar Typhimurium, UniProt P54702 1-264)
T1 construct: FliR, flagellar export gate component, Salmonella enterica serovar Typhimurium; expressed from the complete operon; 'full length' rests on the words 'the same strategy of expression of the complete operon'; source: purified from membranes
T1 sequence: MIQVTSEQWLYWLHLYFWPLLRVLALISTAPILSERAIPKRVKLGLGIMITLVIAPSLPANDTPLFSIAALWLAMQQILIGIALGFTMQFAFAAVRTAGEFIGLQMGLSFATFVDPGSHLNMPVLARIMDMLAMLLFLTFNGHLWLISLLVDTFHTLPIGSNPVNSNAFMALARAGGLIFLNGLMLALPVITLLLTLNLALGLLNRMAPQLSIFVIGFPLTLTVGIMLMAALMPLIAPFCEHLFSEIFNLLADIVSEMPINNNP

B1: Salmonella enterica serovar Typhimurium FliP (natural protein)
chain: QLPGLISQPLAGGGQSWSLSVQTLVFITSLTFLPAILLMMTSFTRIIIVFGLLRNALGTPSAPPNQVLLGLALFLTFFIMSPVIDKIYVDAYQPFSEQKISMQEALDKGAQPLRAFMLRQTREADLALFARLANSGPLQGPEAVPMRILLPAYVTSELKTAFQIGFTIFIPFLIIDLVIASVLMALGMMMVPPATIALPFKLMLFVLVDGWQLLMGSLAQSFYS
notes: FliP, flagellar export gate component, Salmonella enterica serovar Typhimurium; expressed from the complete operon; source: purified from membranes
B2: Salmonella enterica serovar Typhimurium FliQ (natural protein)
chain: MTPESVMMMGTEAMKVALALAAPLLLVALITGLIISILQAATQINEMTLSFIPKIVAVFIAIIVAGPWMLNLLLDYVRTLFSNLPYIIG
notes: FliQ, flagellar export gate component, Salmonella enterica serovar Typhimurium; expressed from the complete operon; 'full length' rests on the words 'the same strategy of expression of the complete operon'; source: purified from membranes
B3: Shigella flexneri SctS (Spa9) (natural protein)
chain: MSDIVYMGNKALYLILIFSLWPVGIATVIGLSIGLLQTVTQLQEQTLPFGIKLIGVSISLLLLSGWYGEVLLSFCHEIMFLIKSGV
notes: Spa9 (SctS), export gate component of the Shigella flexneri virulence type III secretion system; expressed from the complete operon (Spa24/Spa9/Spa29); Two to four copies stand in the SctRST complexes; 'full length' rests on the words 'expression of the complete operon'; source: E. coli BL21, co-expressed from plasmid pT12_Spa24929, membranes dissolved in 1% LMNG, purified (StrepTrap, SEC)

Key:
[1] = biological target: the molecule itself; assay: cryo-EM structure; re-refinement in RELION-3 of the original S. Typhimurium FliPQR single-particle data of ref. 17 (particle polishing, per-particle CTF refinement), 3.65 Å; coordinates remodeled and re-refined
[2] = biological target: T1, Salmonella enterica serovar Typhimurium …; assay: as above; settings: both partners purified
[3] = biological target: B1; assay: as above; settings: both partners purified
[4] = biological target: the molecule itself; assay: cryo-EM structure; SctRST co-expressed from the operon in E. coli, complex purified by the Dual-Strep tag on SctT and SEC; 0.01% LMNG in TBS (100 mM Tris, 150 mM NaCl, 1 mM EDTA, pH 8), 8.4 mg/ml; single-particle reconstruction at 3.5 Å, with further 3D classification of the particle set

Row | Binder | binding result [1] | binding result [2] | binding result [3] | stoichiometry N [4]
1 | B1 | binds | binds | – | –
2 | B2 | binds | binds | binds | –
3 | B3 | – | – | – | 2 and 3
